# Reference: US9682130B2 (priority 2015, dated 2017)
# Experiments:
# [1] = tested on: Human Adenovirus 5 (AD5 strain NYS #98-1836); test: microbe, parasite or virus in culture; format: cell-based; details: Adenovirus 5, MA-104 cells
# Procedure: To assess in vitro cytotoxicity, both a cytopathic effects of a virus (CPE) regression assay and a neutral red lysosomal uptake cell viability assay was performed essentially as described in, e.g., Repetto, et al., Neutral Red Uptake Assay for the Estimation of Cell Viability/Cytotoxicity, Nat. Protoc. 3: 1125-1131 (2008), the content of which is hereby incorporated by reference in its entirety. Ninety-six-well plates were seeded with MA-104 cells at 1×10^5 cells/mL and incubated overnight at 37° C. with 5% CO2. […] Each dilution was added to 5 wells of a 96-well plate with 80% to 100% confluent cells, and three wells of each dilution were then infected with one of the two test viruses. Two wells remained uninfected as controls for toxicity. Six wells per plate were set aside as uninfected, untreated cell controls, and six wells per plate were infected with no treatment as virus controls. […] Assay plates were incubated at 37° C. with 5% CO2. […] After CPE reduction assay was completed, a neutral red lysosomal uptake assay was conducted by filling each well with 0.011% (m/v) neutral red, a vital stain. The plates then were incubated for about 2 hours at 37° C. in the dark. The unincorporated neutral red solution was removed from the wells and the incorporated dye was then eluted by adding Sorensen's citrate-buffered ethanol. The plates were then read on a spectrophotometer at 540 nm to quantify the neutral red taken up by the healthy cells. The optical density of test wells was converted to percent of cell control and normalized to the virus controls.
# (§1) The concentration of test compound required to inhibit CPE by 50% or reduce red uptake into cells by 50% (EC50) was calculated by regression analysis. The toxicity of the compound without virus present was similarly calculated using the uninfected wells treated with test compounds compared with untreated cell controls. The concentration of compound that would cause 50% cytotoxic effects in the absence of virus (CC50) was estimated by linear regression analysis. The selectivity index (SI) is the CC50 divided by EC50.
# [2] = tested on: Human Adenovirus 5 (AD5 strain NYS #98-1836); test: Virus yield reduction assay, Adenovirus 5; format: cell-based
# Procedure: as §1
# The virus yield reduction assay was used to determine actual virus amounts in the presence and absence of the test compound; this is the confirmatory assay for antiviral activity. […] Replicate wells of each compound concentration or control were pooled and frozen at −80° C. Samples were thawed and diluted by 10-fold serial dilutions. A 100 μL aliquot of each dilution was then plated onto 4 replicate wells of 96-well plates seeded with the applicable cells for each virus strain. Plates were incubated as noted above until viral CPE reached its endpoint, then each well was scored microscopically for the presence of viral CPE. The virus titer was determined based on the endpoint using the Reed-Muench method. […]
molecule,measurement,setting,value
"Ranpirnase (protein, UniProt P22069 1-104, looked up, amphibian ribonuclease originally isolated from oocytes and/or early embryos of Rana pipiens; pancreatic ribonuclease (RNase A) superfamily, about 12 kD) Protein P-30: QDWLTFQKKHITNTRDVDCDNIMSTNLFHCKDKNTFIYSRPEPVKAICKGIIASKNVLTTSEFYLSDCNVTSRPCKYKLKKSTNKFCVTCENQAPVHFVGVGSC",Neutral Red Assay EC50,[1],<100 µg/mL
same,Yield Reduction Assay EC50,[2],21.54 µg/mL
